Read-outs that look alike come from different tables or passages of the source.
Tests used:
[1] = biological target: clade C HIV-1 1086.c ENV SOSIP trimer (HIV-1 clade C, 1086.c); test: BLI, antibody on anti-human Fc biosensor, Env in solution, global fit
[2] = biological target: BG505 SOSIP.664 envelope trimer protein (HIV-1 clade A, BG505); test: as above
[3] = biological target: BG505 T332N gp160 on pseudo-typed virus (HIV-1 clade A, BG505)
[4] = biological target: clade C HIV-1 1086.c ENV SOSIP trimer (HIV-1 clade C, 1086.c); test: BLI, antibody on anti-human Fc biosensor, Env protein as analyte
[5] = biological target: BG505 SOSIP.664 envelope trimer protein (HIV-1 clade A, BG505); test: as above
[6] = biological target: 1086.c gp160 wt on pseudo-typed virus (HIV-1 clade C, 1086.c)
[7] = biological target: clade C HIV-1 1086.c ENV SOSIP trimer (HIV-1 clade C, 1086.c); test: BLI, antibody on anti-human Fc biosensor, Env protein as analyte; the sheet has this in the 1086.C SOSIP rows, text paragraph 67 gives this KD for BG505 SOSIP.664
[8] = biological target: 1086.c gp160 wt on pseudo-typed virus (HIV-1 clade C, 1086.c); test: cell-based or functional assay
[9] = biological target: clade C HIV-1 1086.c ENV SOSIP trimer (HIV-1 clade C, 1086.c); test: BLI, antibody on anti-human Fc biosensor, Env protein as analyte; remark: listed apart in the source
[10] = biological target: HIV-1 Env 1086.C gp140C envelope glycoprotein (HIV-1 clade C, 1086.c); test: as above
[11] = biological target: HIV-1 Env 1086.C D7gp120 envelope glycoprotein (HIV-1 clade C, 1086.c); test: as above
[12] = biological target: clade C HIV-1 1086.c ENV SOSIP trimer (HIV-1 clade C, 1086.c); test: BLI, antibody on anti-human Fc biosensor, Env in solution, global fit; remark: listed apart in the source
[13] = biological target: HIV-1 Env 1086.C gp140C envelope glycoprotein (HIV-1 clade C, 1086.c); test: as above
[14] = biological target: HIV-1 Env 1086.C D7gp120 envelope glycoprotein (HIV-1 clade C, 1086.c); test: as above
[15] = biological target: clade C HIV-1 1086.c ENV SOSIP trimer (HIV-1 clade C, 1086.c); test: BLI, antibody on anti-human Fc biosensor, Env protein as analyte; text paragraph 65 prints 0.12 nM
[16] = biological target: BG505 SOSIP.664 envelope trimer protein (HIV-1 clade A, BG505); test: BLI, antibody on anti-human Fc biosensor, Env protein as analyte; text paragraph 65 prints <1.03x10^-3 nM

Row | Substance | Kd [1] [pM] | Kd [2] [pM] | neutralisation IC50, pseudo-typed virus on TZM-bl cells [3] [µg/mL] | koff [4] [s⁻¹] | kon [4] [M⁻¹ s⁻¹] | koff [5] [s⁻¹] | kon [5] [M⁻¹ s⁻¹] | neutralisation IC50, pseudo-typed virus on TZM-bl cells [6] [µg/mL] | other results
1 | 2G12 (antibody) | 70 | < 1 | 0.29 | 5.61e-05 | 821000 | 4.83e-08 | 254000 | – | –
2 | 3BNC117 (antibody) | 300 | 1.08 | 0.007 | 3.92e-05 | 132000 | < 1e-07 | 44700 | 0.21 | –
3 | 10-1074 (antibody) | – | < 1 | 0.003 | – | – | < 1e-07 | 48600 | – | –
4 | 35O22 (antibody) | – | 1.3 | – | – | – | – | – | > 4 | Kd [7]: 1.3 pM
5 | 3869 (antibody) | < 1 | 2 | – | < 1e-07 | 2.56e+06 | 4.83e-08 | 24200 | > 4 | –
6 | CD4-IgG2 (Fc fusion) | – | – | > 4 | – | – | – | – | – | neutralization of pseudotyped virus in TZM-bl cells, IC50 [8]: 1.72 µg/mL
7 | CH58 (antibody) | < 1 | – | – | – | 680000 | – | – | – | koff [9]: < 1e-07 s⁻¹; kon [9]: 680000 M⁻¹ s⁻¹; koff [10]: 1.25e-05 s⁻¹; kon [10]: 56800 M⁻¹ s⁻¹; koff [11]: 0.0012 s⁻¹; kon [11]: 129000 M⁻¹ s⁻¹; Kd [12]: < 1.03 pM; Kd [13]: 220 pM; Kd [14]: 9310 pM
8 | CH59 (antibody) | – | – | – | – | – | – | – | > 4 | koff [9]: < 1e-07 s⁻¹; kon [9]: 63700 M⁻¹ s⁻¹; koff [10]: < 1e-07 s⁻¹; kon [10]: 10200 M⁻¹ s⁻¹; koff [11]: 0.000105 s⁻¹; kon [11]: 57900 M⁻¹ s⁻¹; Kd [12]: < 1 pM; Kd [13]: 1.2 pM; Kd [14]: 1810 pM
9 | CH106 (antibody) | 5330 | 3.51 | > 4 | 6.64e-05 | 12500 | < 1e-07 | 13700 | 3.63 | –
10 | F105 (antibody) | 1.72 | 12.9 | – | < 1e-07 | 30400 | < 1e-07 | 3750 | – | –
11 | HJ16 (antibody) | 3590 | 1290 | > 4 | 0.000151 | 42200 | 0.000128 | 99500 | 3.82 | –
12 | IgG1 b12 (antibody) | 120 | – | – | 9.85e-05 | 811000 | – | – | > 4 | Kd [15]: 122 pM
13 | N6 (antibody) | < 1 | 1.14 | 0.031 | < 1e-07 | 52300 | < 1e-07 | 42200 | 0.023 | –
14 | PG09 (antibody) | 12400 | 2100 | 0.02 | 0.000475 | 38200 | 0.0001 | 47600 | – | –
15 | PG16 (antibody) | – | 7350 | 0.011 | – | – | 0.000358 | 48600 | – | –
16 | PGT121 (antibody) | 170 | 150 | 0.003 | 7.93e-05 | 460000 | 5.35e-06 | 34900 | – | neutralization of pseudotyped virus in TZM-bl cells, IC50 [8]: < 0.001 µg/mL
17 | PGT126 (antibody) | 370 | < 1 | 0.006 | 0.000462 | 1.26e+06 | < 1e-07 | 268000 | – | –
18 | PGT128 (antibody) | 350 | < 1 | 0.003 | 0.000414 | 1.18e+06 | < 1e-07 | 78600 | – | –
19 | PGT145 (antibody) | 1220 | 2570 | < 0.001 | 0.00194 | 1.59e+06 | 0.000482 | 187000 | – | –
20 | VRC01 (antibody) | < 1 | 2.1 | 0.06 | < 1e-07 | 72800 | < 1e-07 | 23200 | 0.49 | –
21 | VRC03 (antibody) | – | < 1.03 | 2.83 | – | – | < 1e-07 | 78600 | – | Kd [16]: < 1 pM
22 | VRC-CH31 (antibody) | – | – | 0.011 | – | – | – | – | 2.16 | –
